{
  "source": "patent US20190153112A1",
  "about": "(IMMUTEP S A S, published 2019)",
  "key": {"[1]": {"biological_target": "human LAG-3 protein (Lymphocyte activation gene-3) on the cell surface (human) (UniProt P18627)", "sequence (P18627 other isoform, or with tags, fused parts or gaps)": "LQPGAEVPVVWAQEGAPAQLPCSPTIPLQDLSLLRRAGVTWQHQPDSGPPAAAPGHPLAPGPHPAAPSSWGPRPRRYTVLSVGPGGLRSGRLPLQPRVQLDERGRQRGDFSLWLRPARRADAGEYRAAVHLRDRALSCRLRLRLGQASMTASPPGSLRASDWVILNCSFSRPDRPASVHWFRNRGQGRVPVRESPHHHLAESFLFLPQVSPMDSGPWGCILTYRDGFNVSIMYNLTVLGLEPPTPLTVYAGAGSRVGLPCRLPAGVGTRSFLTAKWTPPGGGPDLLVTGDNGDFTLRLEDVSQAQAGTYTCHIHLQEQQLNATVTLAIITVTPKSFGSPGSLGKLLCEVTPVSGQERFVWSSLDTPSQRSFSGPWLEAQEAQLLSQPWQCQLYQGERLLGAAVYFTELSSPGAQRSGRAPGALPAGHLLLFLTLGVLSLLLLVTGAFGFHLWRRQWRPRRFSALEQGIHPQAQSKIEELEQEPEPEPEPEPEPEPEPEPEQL", "test": "flow cytometry on LAG-3-transfected CHO cells; antibody 10000 ng/ml"}, "[2]": {"biological_target": "IMP321 (recombinant soluble human LAG-3Ig fusion protein) (human) (UniProt P18627)", "sequence (P18627 23-450)": "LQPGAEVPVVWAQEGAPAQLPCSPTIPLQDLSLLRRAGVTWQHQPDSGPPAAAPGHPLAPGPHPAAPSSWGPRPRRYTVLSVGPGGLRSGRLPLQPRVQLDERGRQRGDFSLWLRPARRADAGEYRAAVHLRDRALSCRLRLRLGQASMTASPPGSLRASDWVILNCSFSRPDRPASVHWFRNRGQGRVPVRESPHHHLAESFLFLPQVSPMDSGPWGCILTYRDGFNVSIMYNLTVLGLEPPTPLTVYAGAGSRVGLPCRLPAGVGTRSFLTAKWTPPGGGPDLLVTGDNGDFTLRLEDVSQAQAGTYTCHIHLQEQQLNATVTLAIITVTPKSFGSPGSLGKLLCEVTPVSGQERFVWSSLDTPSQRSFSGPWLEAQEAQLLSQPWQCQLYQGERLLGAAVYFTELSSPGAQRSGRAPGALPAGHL", "test": "FACS, LAG-3Ig-Alexa 488 (1 µg/ml) pre-incubated with antibody 11000 ng/ml, then bound to Raji (MHC class II+) cells"}, "[3]": {"biological_target": "human LAG-3 protein (Lymphocyte activation gene-3) on the cell surface (human) (UniProt P18627)", "test": "flow cytometry on CD8+ cells of SEB-stimulated PBMCs (Donor 1); antibody 126 ng/ml"}, "[4]": {"biological_target": "human LAG-3 protein (Lymphocyte activation gene-3) on the cell surface (human) (UniProt P18627)", "test": "flow cytometry on CD4+ cells of SEB-stimulated PBMCs (Donor 1); antibody 7 ng/ml"}, "[5]": {"biological_target": "IMP321 (recombinant soluble human LAG-3Ig fusion protein) (human) (UniProt P18627)", "test": "FACS, LAG-3Ig-Alexa 488 (1 µg/ml) pre-incubated with antibody 27 ng/ml, then bound to Raji (MHC class II+) cells"}, "[6]": {"biological_target": "IMP321 (recombinant soluble human LAG-3Ig fusion protein) (human) (UniProt P18627)", "test": "FACS, LAG-3Ig-Alexa 488 (1 µg/ml) with antibody 0 ng/ml (no-antibody value), bound to Raji (MHC class II+) cells"}, "[7]": {"biological_target": "IMP321 (recombinant soluble human LAG-3Ig fusion protein) (human) (UniProt P18627)", "test": "FACS, LAG-3Ig-Alexa 488 (1 µg/ml) pre-incubated with antibody 89 ng/ml, then bound to Raji (MHC class II+) cells"}, "[8]": {"biological_target": "IMP321 (recombinant soluble human LAG-3Ig fusion protein) (human) (UniProt P18627)", "test": "FACS, LAG-3Ig-Alexa 488 (1 µg/ml) pre-incubated with antibody 297 ng/ml, then bound to Raji (MHC class II+) cells"}, "[9]": {"biological_target": "human LAG-3 protein (Lymphocyte activation gene-3) on the cell surface (human) (UniProt P18627)", "test": "flow cytometry on LAG-3-transfected CHO cells; antibody 0 ng/ml (no-antibody background)"}, "[10]": {"biological_target": "IMP321 (recombinant soluble human LAG-3Ig fusion protein) (human) (UniProt P18627)", "test": "FACS, LAG-3Ig-Alexa 488 (1 µg/ml) pre-incubated with antibody 3300 ng/ml, then bound to Raji (MHC class II+) cells"}, "[11]": {"biological_target": "human LAG-3 protein (Lymphocyte activation gene-3) on the cell surface (human) (UniProt P18627)", "test": "flow cytometry on LAG-3-transfected CHO cells; antibody 100 ng/ml"}, "[12]": {"biological_target": "human LAG-3 protein (Lymphocyte activation gene-3) on the cell surface (human) (UniProt P18627)", "test": "flow cytometry on CD4+ cells of SEB-stimulated PBMCs, mean of three donors"}, "[13]": {"biological_target": "human LAG-3 protein (Lymphocyte activation gene-3) on the cell surface (human) (UniProt P18627)", "test": "flow cytometry on CD4+ cells of SEB-stimulated PBMCs (Donor 1); antibody 126 ng/ml"}, "[14]": {"biological_target": "human LAG-3 protein (Lymphocyte activation gene-3) on the cell surface (human) (UniProt P18627)", "test": "flow cytometry on CD8+ cells of SEB-stimulated PBMCs (Donor 1); antibody 541 ng/ml"}, "[15]": {"biological_target": "IMP321 (recombinant soluble human LAG-3Ig fusion protein) (human) (UniProt P18627)", "test": "Biacore, LAG-3Ig on the chip and 17B4 antibody in the running buffer"}},
  "data": [
    {"substance": "antagonistic anti-LAG-3 mouse monoclonal antibody 17B4", "values": [
      {"measurement": "MFI", "setting": "[1]", "value": 6090, "unit": "MFI"},
      {"measurement": "MFI of sLAG-3Ig-Alexa 488", "setting": "[2]", "value": -11, "unit": "MFI"},
      {"measurement": "MFI", "setting": "[3]", "value": 2840, "unit": "MFI"},
      {"measurement": "MFI", "setting": "[4]", "value": 324, "unit": "MFI"},
      {"measurement": "MFI of sLAG-3Ig-Alexa 488", "setting": "[5]", "value": 260, "unit": "MFI"},
      {"measurement": "MFI of sLAG-3Ig-Alexa 488", "setting": "[6]", "value": 284, "unit": "MFI"},
      {"measurement": "MFI of sLAG-3Ig-Alexa 488", "setting": "[7]", "value": 214, "unit": "MFI"},
      {"measurement": "MFI of sLAG-3Ig-Alexa 488", "setting": "[8]", "value": 73, "unit": "MFI"},
      {"measurement": "MFI", "setting": "[9]", "value": 156, "unit": "MFI"},
      {"measurement": "MFI of sLAG-3Ig-Alexa 488", "setting": "[10]", "value": 13, "unit": "MFI"},
      {"measurement": "MFI", "setting": "[11]", "value": 3170, "unit": "MFI"},
      {"measurement": "EC50", "setting": "[12]", "value": 0.8, "unit": "nM"},
      {"measurement": "MFI", "setting": "[13]", "value": 1240, "unit": "MFI"},
      {"measurement": "MFI", "setting": "[14]", "value": 4090, "unit": "MFI"},
      {"measurement": "Kd", "setting": "[15]", "value": 0.121, "unit": "nM"},
      {"measurement": "koff", "setting": "[15]", "value": 0.000132, "unit": "s⁻¹"},
      {"measurement": "kon", "setting": "[15]", "value": "1.09e+06", "unit": "M⁻¹ s⁻¹"}
    ]}
  ]
}
